The record followed here is US20230399417A1 (Genentech, published 2023).

No end group written: not given here.

Assay [1] deals with T1, mouse IL-1β peptide 21LFFEVD26 (mouse).
T1 construct: Liberated C-terminus of the noncanonical cleavage site, with free C-terminal Asp
T1 peptide: LFFEVD-OH
Nature of the assay: X-ray co-crystal structure.

Assay [2] addresses T2, IL-18 peptide 30GDLESD35.
T2 construct: Liberated C-terminus of IL-18, with free C-terminal Asp
T2 peptide: GDLESD
Briefly: X-ray co-crystal structure.

B1: CJ11 Fab (Fab, V domains shown)
VH: QSVEESGGGLVTPGTPLTLTCTVSGIDLSRYAMSWVRQAPGKGLEWIGIFGSLGGIFYASWAKGRFTISKTSPTTVDLKITSPTTEDTATYFCARMPYTTDRDFWGPGTLVTVSS
VL: DIVMTQTPSSTSAAVGGTVTITCQASQSVANNNYLKWYQQKRGQPPKQLIYSVSTLASGVPSRFKGSGSGTQFTLTISDLECDDAATYYCSGYFNNNIGAFGGGTKLEIK
notes: also called its Fab
B1: in assay [1], the binding result is listed as “binds”.

B2: CJ11 Fab modified by reductive lysine methylation (Fab, V domains shown)
VH: QSVEESGGGLVTPGTPLTLTCTVSGIDLSRYAMSWVRQAPGKGLEWIGIFGSLGGIFYASWAKGRFTISKTSPTTVDLKITSPTTEDTATYFCARMPYTTDRDFWGPGTLVTVSS
VL: DIVMTQTPSSTSAAVGGTVTITCQASQSVANNNYLKWYQQKRGQPPKQLIYSVSTLASGVPSRFKGSGSGTQFTLTISDLECDDAATYYCSGYFNNNIGAFGGGTKLEIK
modifications: lysines modified by reductive methylation
With B2, the binding result in assay [2] is listed as “binds”.
